Data reported in patent publication US20070128187A1 (GENOME THERAPEUTICS, published 2007).

T1: Zmax1/LRP5 ligand binding domain bait LBD1 (Leu969-Pro1376) (human, UniProt O75197 969-1376)
T1 construct: also called pDBleuLBD1; not shown: not described
T1 sequence: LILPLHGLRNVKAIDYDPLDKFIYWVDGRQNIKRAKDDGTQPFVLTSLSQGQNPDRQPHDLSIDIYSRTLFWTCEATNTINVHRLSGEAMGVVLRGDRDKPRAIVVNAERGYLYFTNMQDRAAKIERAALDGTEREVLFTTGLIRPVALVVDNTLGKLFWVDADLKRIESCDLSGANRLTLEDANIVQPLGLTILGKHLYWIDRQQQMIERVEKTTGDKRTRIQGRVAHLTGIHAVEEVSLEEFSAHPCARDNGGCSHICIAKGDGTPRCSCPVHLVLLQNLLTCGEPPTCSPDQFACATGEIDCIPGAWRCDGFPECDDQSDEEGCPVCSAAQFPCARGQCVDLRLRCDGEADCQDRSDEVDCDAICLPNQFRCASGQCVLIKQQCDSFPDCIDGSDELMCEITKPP

T2: Zmax1/LRP5 ligand binding domain bait LBD4 (Arg1070-Pro1376) (human, UniProt O75197 1070-1376)
T2 construct: also called pDBleuLBD4; not shown: not described
T2 sequence: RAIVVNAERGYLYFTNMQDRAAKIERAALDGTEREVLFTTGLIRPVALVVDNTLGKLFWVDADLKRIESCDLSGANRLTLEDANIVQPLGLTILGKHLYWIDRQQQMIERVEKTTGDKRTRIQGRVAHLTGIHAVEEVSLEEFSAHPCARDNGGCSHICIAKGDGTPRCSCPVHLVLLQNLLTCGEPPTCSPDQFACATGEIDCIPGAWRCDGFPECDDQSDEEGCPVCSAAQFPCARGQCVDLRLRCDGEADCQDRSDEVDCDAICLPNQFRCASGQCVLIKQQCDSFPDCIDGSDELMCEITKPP

T3: LRP5LBD-LexA bait (human, UniProt O75197 969-1376, limits assumed)
T3 construct: Neither the limits of the LBD nor the order of the two parts is stated; also called LRP5 LBD fused with LexA; not shown: LexA
T3 sequence: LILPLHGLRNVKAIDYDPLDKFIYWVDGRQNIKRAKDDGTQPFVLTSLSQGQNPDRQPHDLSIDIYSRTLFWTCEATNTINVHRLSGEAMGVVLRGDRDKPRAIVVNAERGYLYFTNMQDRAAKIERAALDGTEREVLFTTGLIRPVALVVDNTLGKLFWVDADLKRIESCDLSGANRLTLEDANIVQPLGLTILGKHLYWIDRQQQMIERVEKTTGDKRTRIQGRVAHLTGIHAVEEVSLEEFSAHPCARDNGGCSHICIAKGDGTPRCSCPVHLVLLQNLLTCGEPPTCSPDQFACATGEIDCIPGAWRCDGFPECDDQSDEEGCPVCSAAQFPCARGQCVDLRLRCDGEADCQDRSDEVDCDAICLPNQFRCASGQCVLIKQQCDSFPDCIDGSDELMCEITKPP


How the values were obtained:
[1] = biological target: T1, Zmax1/LRP5 ligand binding domain bait …; test: Y2H, growth on selective media
From the text: (§1) These clones were transformed into yeast and mated with each of three yeast strains containing pDBleu (Gibco/BRL), pDBleuLBD1, and pDBleuLBD4. Positive interactions were detected by growth of the hybrids on appropriate selective media.

[2] = biological target: T2, Zmax1/LRP5 ligand binding domain bait …; test: Y2H, growth on selective media
From the text: as §1

LRP5LBD-LexA bait = biological target: T3, LRP5LBD-LexA bait; test: Y2H interaction trap, lacZ reporter under a single LexA operator
From the text: For example, the Interaction Trap methodology can be used as follows.

Binder | binding result [1] | binding result [2] | fold activation of lacZ reporter over the background (LRP5LBD-LexA bait) [fold]
Dkk-1 clone D11 (F3/R2: Val139-Cys245) (ligand, not shown: large carriers) VSSDQNHFRGEIEETITESFGNDHSTLDGYSRRTTLSSKMYHTKGQEGSVCLRSSDCASGLCCARHFWSKICKPVLKEGQVCTKHRRKGSHGLEIFQRCYCGEGLSC | no binding | no binding | –
Dkk-1 clone isolated from the HOB03C5 osteoblast library (Gal4 activation domain fusion prey) (ligand, S. cerevisiae, also called Gal4AD-Dkk prey) ANFNQSGNIADSSLSFTFTNSSNGPNLITTQTNSQALSQPIASSNVHDNFMNNEITASKIDDGNNSKPLSPGWTDQTAYNAFGITTGMFNTTTMDDVYNYLFDDEDTPPNPKKETLNSVLNSNAIKNLPPPLGGAAGHPGSAVSAAPGILYPGGNKYQTIDNYQPYPCAEDEECGTDEYCASPTRGGDAGVQICLACRKRRKRCMRHAMCCPGNYCKNGICVSSDQNHFRGEIEETITESFGNDHSTLDGYSRRTTLSSKMYHTKGQEGSVCLRSSDCASGLCCARHFWSKICKPVLKEGQVCTKHRRKGSHGLEIFQRCYCGEGLSCRIQKDHHQASNSSRLHTCQRH | – | – | > 20
Dkk-1 clone D8 (F2/R2: Cys97-Cys245) (ligand, not shown: large carriers) CASPTRGGDAGVQICLACRKRRKRCMRHAMCCPGNYCKNGICVSSDQNHFRGEIEETITESFGNDHSTLDGYSRRTTLSSKMYHTKGQEGSVCLRSSDCASGLCCARHFWSKICKPVLKEGQVCTKHRRKGSHGLEIFQRCYCGEGLSC | binds | binds | –

Other lines, results leading:

binding result [1] | binding result [2] | fold activation of lacZ reporter over the background (LRP5LBD-LexA bait) [fold] | Binder
binds | binds | – | Dkk-1 clone D4 (F1/R2: Asn34-Cys245) (ligand, not shown: large carriers) NSVLNSNAIKNLPPPLGGAAGHPGSAVSAAPGILYPGGNKYQTIDNYQPYPCAEDEECGTDEYCASPTRGGDAGVQICLACRKRRKRCMRHAMCCPGNYCKNGICVSSDQNHFRGEIEETITESFGNDHSTLDGYSRRTTLSSKMYHTKGQEGSVCLRSSDCASGLCCARHFWSKICKPVLKEGQVCTKHRRKGSHGLEIFQRCYCGEGLSC
no binding | no binding | – | Dkk-1 clone D3 (F1/R1: Asn34-Lys182) (ligand, not shown: large carriers) NSVLNSNAIKNLPPPLGGAAGHPGSAVSAAPGILYPGGNKYQTIDNYQPYPCAEDEECGTDEYCASPTRGGDAGVQICLACRKRRKRCMRHAMCCPGNYCKNGICVSSDQNHFRGEIEETITESFGNDHSTLDGYSRRTTLSSKMYHTK
